The experiment addresses HLA-A2.1 molecules on T2 (TAP-, HLA-A2.1+) cells (human). In words: T2 cells, peptide binding by surface HLA-A2.1 (BB7.2) flow cytometry; ratio of concentrations reaching 20% of maximal binding. Background: In flow cytometry, cells or beads pass a laser one at a time.

Read-outs that look alike come from different tables or passages of the source.

Take VLPDVFIRC (modifications not checked) [NA17-A nt38-64 epitopic peptide]: the RA (relative affinity) (ratio to HIV 1 rt.476 reference peptide) was 1.52. On to RMPEAAPPV [p53 65-73 epitopic peptide], for which the RA (relative affinity) (ratio to HIV 1 rt.476 reference peptide) (remark: other sources report otherwise) was 0.91.

These data come from patent publication US7345026.
